# Laboratory results published in US20230416365A1 (Hoffmann-La Roche, published 2023).
# T1: recombinant CD79b-His (Sinobiological #29750-H08H) (UniProt P40259 29-159)
# T1 construct: bought; whole entry named, limits unknown; also called soluble recombinant CD79b-His
# T1 sequence (looked up): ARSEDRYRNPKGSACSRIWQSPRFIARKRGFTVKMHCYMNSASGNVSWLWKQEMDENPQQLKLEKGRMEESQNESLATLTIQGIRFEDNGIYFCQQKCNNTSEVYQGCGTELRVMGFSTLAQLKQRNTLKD
# T2: human CEA (CEACAM5), form in the assay not stated (human, UniProt P06731 35-685, limits assumed)
# T2 sequence: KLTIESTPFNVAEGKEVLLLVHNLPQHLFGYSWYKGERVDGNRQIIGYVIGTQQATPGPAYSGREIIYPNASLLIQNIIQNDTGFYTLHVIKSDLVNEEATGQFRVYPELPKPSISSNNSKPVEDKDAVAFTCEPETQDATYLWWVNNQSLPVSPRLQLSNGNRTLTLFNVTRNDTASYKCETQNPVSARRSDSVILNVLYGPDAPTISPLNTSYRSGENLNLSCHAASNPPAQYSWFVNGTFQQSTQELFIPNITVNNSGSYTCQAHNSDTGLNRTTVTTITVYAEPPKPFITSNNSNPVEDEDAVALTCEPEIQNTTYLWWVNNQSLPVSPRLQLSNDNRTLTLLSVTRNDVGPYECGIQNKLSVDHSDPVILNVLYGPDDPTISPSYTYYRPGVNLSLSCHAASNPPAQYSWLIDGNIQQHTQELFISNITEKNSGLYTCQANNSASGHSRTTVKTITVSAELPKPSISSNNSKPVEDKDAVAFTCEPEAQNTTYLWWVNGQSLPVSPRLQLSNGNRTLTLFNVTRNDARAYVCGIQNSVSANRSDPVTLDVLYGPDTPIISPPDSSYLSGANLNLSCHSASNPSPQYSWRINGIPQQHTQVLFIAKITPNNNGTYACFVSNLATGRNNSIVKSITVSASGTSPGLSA
# B1: HER3(lumretuzumab)-CD28 (SA_Variant 15) 1+1 format (Molecule 14B) (bispecific antibody, human IgG1, kappa, L234A L235A)
# heavy 1: not shown
# light 1: not shown
# heavy 2: DIVMTQSPDSLAVSLGERATINCKSSQSVLNSGNQKNYLTWYQQKPGQPPKLLIYWASTRESGVPDRFSGSGSGTDFTLTISSLQAEDVAVYYCQSDYSYPYTFGQGTKLEIKSSASTKGPSVFPLAPSSKSTSGGTAALGCLVKDYFPEPVTVSWNSGALTSGVHTFPAVLQSSGLYSLSSVVTVPSSSLGTQTYICNVNHKPSNTKVDKKVEPKSCDKTHTCPPCPAPEAAGGPSVFLFPPKPKDTLMISRTPEVTCVVVDVSHEDPEVKFNWYVDGVEVHNAKTKPREEQYNSTYRVVSVLTVLHQDWLNGKEYKCKVSNKALGAPIEKTISKAKGQPREPQVCTLPPSRDELTKNQVSLSCAVKGFYPSDIAVEWESNGQPENNYKTTPPVLDSDGSFFLVSKLTVDKSRWQQGNVFSCSVMHEALHNHYTQKSLSLSP
# light 2: QVQLVQSGAEVKKPGASVKVSCKASGYTFRSSYISWVRQAPGQGLEWMGWIYAGTGSPSYNQKLQGRVTMTTDTSTSTAYMELRSLRSDDTAVYYCARHRDYYSNSLTYWGQGTLVTVSSASVAAPSVFIFPPSDEQLKSGTASVVCLLNNFYPREAKVQWKVDNALQSGNSQESVTEQDSKDSTYSLSSTLTLSKADYEKHKVYACEVTHQGLSSPVTKSFNRGEC
# notes: huIgG1 PG-LALA CrossFab; also called P1AF0151; HER3-CD28
# B2: EpCAM (MT201)-CD28 (SA_Variant 15) 1+1 format (Molecule 14A) (bispecific antibody, human IgG1, kappa, L234A L235A)
# heavy 1: not shown
# light 1: QVQLVQSGAEVKKPGASVKVSCKASGYTFTSYYIHWVRQAPGQGLEWIGSIYPGNVQTNYNEKFKDRATLTVDTSISTAYMELSRLRSDDTAVYFCTRSHYGLDWNFDVWGQGTTVTVSSASVAAPSVFIFPPSDEQLKSGTASVVCLLNNFYPREAKVQWKVDNALQSGNSQESVTEQDSKDSTYSLSSTLTLSKADYEKHKVYACEVTHQGLSSPVTKSFNRGEC
# heavy 2: not shown
# light 2: ELQMTQSPSSLSASVGDRVTITCRTSQSISSYLNWYQQKPGQPPKLLIYWASTRESGVPDRFSGSGSGTDFTLTISSLQPEDSATYYCQQSYDIPYTFGQGTKLEIKRTVAAPSVFIFPPSDRKLKSGTASVVCLLNNFYPREAKVQWKVDNALQSGNSQESVTEQDSKDSTYSLSSTLTLSKADYEKHKVYACEVTHQGLSSPVTKSFNRGEC
# notes: huIgG1 PG-LALA CrossFab; also called P1AE9051; EpCAM-CD28
# B3: GPRC5D (5E11)-CD28 (SA_Variant 15) 1+1 format (Molecule 16A) (bispecific antibody, human IgG1, kappa, L234A L235A)
# heavy 1: not shown
# light 1: QVQLVQSGAEVKKPGASVKVSCKASGYTFTSYYIHWVRQAPGQGLEWIGSIYPGNVQTNYNEKFKDRATLTVDTSISTAYMELSRLRSDDTAVYFCTRSHYGLDWNFDVWGQGTTVTVSSASVAAPSVFIFPPSDEQLKSGTASVVCLLNNFYPREAKVQWKVDNALQSGNSQESVTEQDSKDSTYSLSSTLTLSKADYEKHKVYACEVTHQGLSSPVTKSFNRGEC
# heavy 2: EVQLLESGGGLVQPGGSLRLSCAASGFTFSKYAMAWVRQAPGKGLEWVASISTGGVNTYYADSVKGRFTISRDNSKNTLYLQMNSLRAEDTAVYYCATHTGDYFDYWGQGTMVTVSSASTKGPSVFPLAPSSKSTSGGTAALGCLVEDYFPEPVTVSWNSGALTSGVHTFPAVLQSSGLYSLSSVVTVPSSSLGTQTYICNVNHKPSNTKVDEKVEPKSCDKTHTCPPCPAPEAAGGPSVFLFPPKPKDTLMISRTPEVTCVVVDVSHEDPEVKFNWYVDGVEVHNAKTKPREEQYNSTYRVVSVLTVLHQDWLNGKEYKCKVSNKALGAPIEKTISKAKGQPREPQVCTLPPSRDELTKNQVSLSCAVKGFYPSDIAVEWESNGQPENNYKTTPPVLDSDGSFFLVSKLTVDKSRWQQGNVFSCSVMHEALHNHYTQKSLSLSP
# light 2: EIVLTQSPGTLSLSPGERATLSCRASQSVSISGINLMNWYQQKPGQQPKLLIYHASILASGIPDRFSGSGSGTDFTLTISRLEPEDFAVYYCQQTRESPLTFGQGTRLEIKRTVAAPSVFIFPPSDRKLKSGTASVVCLLNNFYPREAKVQWKVDNALQSGNSQESVTEQDSKDSTYSLSSTLTLSKADYEKHKVYACEVTHQGLSSPVTKSFNRGEC
# notes: huIgG1 PG-LALA CrossFab; also called P1AF1272
# B4: CD79b (huMA79b.v28)-CD28 (SA_v15) 1+1 (Molecule F of Example 18; 18F) (bispecific antibody, human IgG1, kappa, L234A L235A)
# heavy 1: not shown
# light 1: not shown
# heavy 2: DIQLTQSPSSLSASVGDRVTITCKASQSVDYEGDSFLNWYQQKPGKAPKLLIYAASNLESGVPSRFSGSGSGTDFTLTISSLQPEDFATYYCQQSNEDPLTFGQGTKVEIKSSASTKGPSVFPLAPSSKSTSGGTAALGCLVKDYFPEPVTVSWNSGALTSGVHTFPAVLQSSGLYSLSSVVTVPSSSLGTQTYICNVNHKPSNTKVDKKVEPKSCDKTHTCPPCPAPEAAGGPSVFLFPPKPKDTLMISRTPEVTCVVVDVSHEDPEVKFNWYVDGVEVHNAKTKPREEQYNSTYRVVSVLTVLHQDWLNGKEYKCKVSNKALGAPIEKTISKAKGQPREPQVCTLPPSRDELTKNQVSLSCAVKGFYPSDIAVEWESNGQPENNYKTTPPVLDSDGSFFLVSKLTVDKSRWQQGNVFSCSVMHEALHNHYTQKSLSLSP
# light 2: EVQLVESGGGLVQPGGSLRLSCAASGYTFSSYWIEWVRQAPGKGLEWIGEILPGGGDTNYNEIFKGRATFSADTSKNTAYLQMNSLRAEDTAVYYCTRRVPIRLDYWGQGTLVTVSSASVAAPSVFIFPPSDEQLKSGTASVVCLLNNFYPREAKVQWKVDNALQSGNSQESVTEQDSKDSTYSLSSTLTLSKADYEKHKVYACEVTHQGLSSPVTKSFNRGEC
# notes: huIgG1 PG-LALA CrossFab; also called P1AE9039; CD79b-CD28
# B5: murine CEA antibody A5B7 (parental) (antibody, V domains shown)
# VH: EVKLVESGGGLVQPGGSLRLSCATSGFTFTDYYMNWVRQPPGKALEWLGFIGNKANGYTTEYSASVKGRFTISRDKSQSILYLQMNTLRAEDSATYYCTRDRGLRFYFDYWGQGTTLTVSS
# VL: QTVLSQSPAILSASPGEKVTMTCRASSSVTYIHWYQQKPGSSPKSWIYATSNLASGVPARFSGSGSGTSYSLTISRVEAEDAATYYCQHWSSKPPTFGGGTKLEIK
# notes: also called parental murine A5B7 antibody; parental chimeric antibody
# B6: humanized CEA antibody A5H1EL1D (format in the assay not stated) (antibody, V domains shown)
# VH: EVQLLESGGGLVQPGGSLRLSCAASGFTFTDYYMNWVRQAPGKGLEWLGFIGNKANAYTTEYSASVKGRFTISRDKSKNTLYLQMNSLRAEDTATYYCTRDRGLRFYFDYWGQGTTVTVSS
# VL: EIVLTQSPATLSLSPGERATLSCRASSSVTYIHWYQQKPGQAPRSWIYATSNLASGIPARFSGSGSGTDFTLTISSLEPEDFAVYYCQHWSSKPPTFGQGTKLEIK
# notes: heavy chain with VH variant 3-23A5-1E and Ckappa light chain with VL variant A5-L1D; also called huA5B7
# B7: FAP-CD28SA 2+2 (P1AD4493) (bispecific antibody, human IgG1, kappa, L234A L235A)
# CD28(SA) light chain VL-CL RK: not shown
# heavy chain CD28(SA) VHCH1 EE - Fc PGLALA - FAP(4B9) VHCL: not shown
# FAP(4B9) VLCH1: EIVLTQSPGTLSLSPGERATLSCRASQSVTSSYLAWYQQKPGQAPRLLINVGSRRATGIPDRFSGSGSGTDFTLTISRLEPEDFAVYYCQQGIMLPPTFGQGTKVEIKSSASTKGPSVFPLAPSSKSTSGGTAALGCLVKDYFPEPVTVSWNSGALTSGVHTFPAVLQSSGLYSLSSVVTVPSSSLGTQTYICNVNHKPSNTKVDKKVEPKSCD
# notes: bivalent for CD28 and bivalent for FAP; copy numbers follow from the 2+2 format; also called Molecule F; FAP(4B9)-CD28(SA) 2+2
# B8: FAP-CD28 1+4 (bispecific antibody, human IgG1, kappa, L234A L235A)
# CD28(SA) light chain: not shown
# heavy chain CD28(SA) VHCH-VHCH - Fc knob - FAP(4B9) VH: not shown
# heavy chain CD28(SA) VHCH-VHCH - Fc hole - FAP(4B9) VL: QVQLVQSGAEVKKPGASVKVSCKASGYTFTSYYIHWVRQAPGQGLEWIGCIYPGNVNTNYNEKFKDRATLTVDTSISTAYMELSRLRSDDTAVYFCTRSHYGLDWNFDVWGQGTTVTVSSASTKGPSVFPLAPSSKSTSGGTAALGCLVKDYFPEPVTVSWNSGALTSGVHTFPAVLQSSGLYSLSSVVTVPSSSLGTQTYICNVNHKPSNTKVDKKVEPKSCDGGGGSGGGGSQVQLVQSGAEVKKPGASVKVSCKASGYTFTSYYIHWVRQAPGQGLEWIGCIYPGNVNTNYNEKFKDRATLTVDTSISTAYMELSRLRSDDTAVYFCTRSHYGLDWNFDVWGQGTTVTVSSASTKGPSVFPLAPSSKSTSGGTAALGCLVKDYFPEPVTVSWNSGALTSGVHTFPAVLQSSGLYSLSSVVTVPSSSLGTQTYICNVNHKPSNTKVDKKVEPKSCDKTHTCPPCPAPEAAGGPSVFLFPPKPKDTLMISRTPEVTCVVVDVSHEDPEVKFNWYVDGVEVHNAKTKPREEQYNSTYRVVSVLTVLHQDWLNGKEYKCKVSNKALGAPIEKTISKAKGQPREPQVCTLPPSRDELTKNQVSLSCAVKGFYPSDIAVEWESNGQPENNYKTTPPVLDSDGSFFLVSKLTVDKSRWQQGNVFSCSVMHEALHNHYTQKSLSLSPGGGGGSGGGGSGGGGSGGGGSEIVLTQSPGTLSLSPGERATLSCRASQSVTSSYLAWYQQKPGQAPRLLINVGSRRATGIPDRFSGSGSGTDFTLTISRLEPEDFAVYYCQQGIMLPPTFGQGTKVEIK
# notes: tetravalent for CD28, monovalent for FAP; also called Molecule D; FAP(4B9)-CD28(SA) 1+4
# Columns and labels:
# [1] = target: T3, human HER3 on T-47D cells (human, UniProt P21860 20-1342); experiment: flow cytometry on T-47D cells, PE anti-human secondary antibody, MFI
# T3 construct: also called ErbB3
# [2] = target: T4, human CD28 on CHO cells (parental cell line CHO-k1 ATCC #CCL-61, modified to stably overexpress human CD28) (human, UniProt P10747 19-220); experiment: flow cytometry on CHO-k1 cells expressing human CD28, PE anti-human secondary antibody, MFI
# T4 construct: also called hu CD28; CHO-hCD28
# [3] = target: T4, human CD28 on CHO cells (parental cell …); experiment: as above; remark: listed apart in the source
# [4] = target: T4, human CD28 on CHO cells (parental cell …); experiment: flow cytometry on CHO-hCD28 cells
# [5] = target: T5, human GPRC5D on CHO-hGPRC5D cells (human, UniProt Q9NZD1 1-345); experiment: flow cytometry on CHO huGPRC5D cells, AF488 anti-human IgG Fc secondary
# T5 construct: also called CHO huGPRC5D L2
# [6] = target: T1, recombinant CD79b-His (Sinobiological …); experiment: SPR, Biacore T200, CD79b-His captured by anti-penta-His on CM5, bispecific as analyte
# [7] = target: T2, human CEA (CEACAM5), form in the assay …; experiment: SPR
# [8] = target: T6, human FAP on 3T3-huFAP cells (clone 19) (human, UniProt Q12884 1-760); experiment: flow cytometry on 3T3-huFAP cells, median fluorescence intensity
# [9] = target: T6, human FAP on 3T3-huFAP cells (clone 19); experiment: flow cytometry on 3T3-huFAP cells, PE anti-human secondary antibody, median fluorescence intensity
binder,measurement,setting,value
B1,EC50 (read off the curve),[1],~1 nM
same,binding result,[2],binds
B2,EC50 (read off the curve),[3],~8 nM
B3,EC50,[4],4.7 to 5.2 nM
same,binding result,[5],binds
B4,Kd,[6],76 nM
same,koff,[6],0.0195 s⁻¹
same,kon,[6],257000 M⁻¹ s⁻¹
B5,Kd,[7],~0.8 nM
B6,Kd,[7],~2.5 nM
B7,EC50 (read off the curve),[8],~2 nM
same,EC50 (read off the curve),[9],~2 nM
B8,binding result,[8],binds
